Assay results published in doi:10.1101/2025.05.23.649291 (bioRxiv, 2025).
Where two headings read alike, the source gives them in different places. Each block holds one binder with its values, some of them ahead of it.

What was measured:
[1] = molecular target: mFc-mouse TfR1 ectodomain (mouse IgG2a Fc fusion) (Mus musculus, UniProt Q62351); assay: SPR
[2] = molecular target: T1, human TfR1 fused to EGFP, on CHO-hTfR1-EGFP cells (human, UniProt P02786); assay: flow cytometry on cells
[3] = molecular target: T2, rhesus monkey TfR1 fused to EGFP, on CHO-rhTfR1-EGFP cells (Macaca mulatta, UniProt H9Z2T8); assay: immunostaining of cells or tissue
[4] = molecular target: mFc-human TfR1 ectodomain (mouse IgG2a Fc fusion) (Homo sapiens, UniProt P02786); assay: SPR
[5] = molecular target: mouse NTSR1 fused to GFP, on Expi293 cells (mouse, UniProt O88319); assay: flow cytometry on cells
Sequence of mouse NTSR1 fused to GFP, on Expi293 cells (O88319 whole entry, the tested form may be a part): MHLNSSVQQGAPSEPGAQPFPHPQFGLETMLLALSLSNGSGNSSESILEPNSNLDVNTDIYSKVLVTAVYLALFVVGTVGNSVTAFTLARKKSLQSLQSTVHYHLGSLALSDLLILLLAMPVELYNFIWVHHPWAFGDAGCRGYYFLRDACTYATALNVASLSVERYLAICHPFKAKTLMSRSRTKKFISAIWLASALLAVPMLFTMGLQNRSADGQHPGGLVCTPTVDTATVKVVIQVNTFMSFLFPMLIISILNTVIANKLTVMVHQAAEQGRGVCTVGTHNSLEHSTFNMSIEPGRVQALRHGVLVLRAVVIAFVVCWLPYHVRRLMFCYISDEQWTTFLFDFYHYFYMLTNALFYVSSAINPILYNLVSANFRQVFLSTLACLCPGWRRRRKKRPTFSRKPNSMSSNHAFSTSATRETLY

[6] = molecular target: T3, mouse TfR1 fused to EGFP, on CHO-mTfR1-EGFP cells (Mus musculus, UniProt Q62351); assay: immunostaining of cells or tissue
T3 sequence (Q62351 whole entry, the tested form may be a part): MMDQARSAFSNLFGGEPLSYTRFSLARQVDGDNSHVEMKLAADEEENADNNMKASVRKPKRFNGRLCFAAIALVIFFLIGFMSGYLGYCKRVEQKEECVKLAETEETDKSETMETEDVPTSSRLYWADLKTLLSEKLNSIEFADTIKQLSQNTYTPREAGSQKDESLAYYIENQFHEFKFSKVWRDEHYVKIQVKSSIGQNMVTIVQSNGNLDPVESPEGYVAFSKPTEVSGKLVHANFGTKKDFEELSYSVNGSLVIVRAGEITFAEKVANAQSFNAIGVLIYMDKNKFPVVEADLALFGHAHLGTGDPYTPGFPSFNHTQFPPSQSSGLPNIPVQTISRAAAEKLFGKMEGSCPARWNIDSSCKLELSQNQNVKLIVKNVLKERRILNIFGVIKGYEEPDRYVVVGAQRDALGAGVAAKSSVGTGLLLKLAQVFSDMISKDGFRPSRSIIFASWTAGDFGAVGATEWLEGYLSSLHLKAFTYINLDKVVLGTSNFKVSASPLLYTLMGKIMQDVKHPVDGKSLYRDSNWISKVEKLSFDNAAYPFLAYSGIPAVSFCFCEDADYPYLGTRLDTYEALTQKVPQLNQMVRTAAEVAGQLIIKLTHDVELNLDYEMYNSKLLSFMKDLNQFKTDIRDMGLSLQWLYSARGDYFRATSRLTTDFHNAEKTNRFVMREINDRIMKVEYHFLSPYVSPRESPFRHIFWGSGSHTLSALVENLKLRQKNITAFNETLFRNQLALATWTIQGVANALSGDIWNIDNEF

[7] = molecular target: T2, rhesus monkey TfR1 fused to EGFP, on …; assay: immunostaining of cells or tissue; remark: listed apart in the source
[8] = molecular target: T2, rhesus monkey TfR1 fused to EGFP, on …; assay: flow cytometry on cells
[9] = molecular target: T1, human TfR1 fused to EGFP, on …; assay: immunostaining of cells or tissue
[10] = molecular target: T3, mouse TfR1 fused to EGFP, on …; assay: immunostaining of cells or tissue; remark: listed apart in the source
[11] = molecular target: mFc-rhesus monkey TfR1 ectodomain (mouse IgG2a Fc fusion) (Macaca mulatta, UniProt H9Z2T8); assay: SPR

Sequence of mFc-mouse TfR1 ectodomain (mouse IgG2a Fc fusion) (Q62351 89-763): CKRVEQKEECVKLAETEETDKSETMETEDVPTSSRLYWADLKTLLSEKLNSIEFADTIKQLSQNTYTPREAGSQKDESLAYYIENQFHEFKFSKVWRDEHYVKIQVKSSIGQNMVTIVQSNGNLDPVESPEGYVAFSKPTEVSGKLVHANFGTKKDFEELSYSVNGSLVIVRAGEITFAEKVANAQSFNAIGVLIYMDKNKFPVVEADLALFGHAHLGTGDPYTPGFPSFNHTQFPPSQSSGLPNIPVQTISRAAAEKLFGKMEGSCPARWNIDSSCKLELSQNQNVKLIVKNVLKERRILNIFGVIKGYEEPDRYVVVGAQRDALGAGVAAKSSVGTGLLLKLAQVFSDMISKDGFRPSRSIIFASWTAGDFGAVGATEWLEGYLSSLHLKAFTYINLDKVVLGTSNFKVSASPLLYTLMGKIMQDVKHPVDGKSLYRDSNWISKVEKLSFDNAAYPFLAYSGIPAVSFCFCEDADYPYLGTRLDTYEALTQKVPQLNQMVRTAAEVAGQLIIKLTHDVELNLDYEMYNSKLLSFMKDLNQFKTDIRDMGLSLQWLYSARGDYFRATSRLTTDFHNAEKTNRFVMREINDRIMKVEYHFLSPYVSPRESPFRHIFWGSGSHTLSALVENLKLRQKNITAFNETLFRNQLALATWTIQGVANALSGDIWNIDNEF

B1: VHH C5 (VHH)
chain: EVQLVESGGGVVQPGGSLKLSCVASGTDFSINFIRWYRQAPGKQREFVAGFTATGNTNYADSMKGRFTISRDNTKNAVYLQIDSLKPEDTAVYYCYMLDKWGQGTQVTVSS
- Kd [1]: ~110 nM
- Kd [2]: 3.1 nM
- binding result [3]: binds

B2: C5V30 (VHH)
VHH: EVQLVESGGGVVQPGGSLKLSCVASGTDKSINFIRWYRQAPGKQREFVAGFTATGNTNYADSMKGRFTISRDNTKNAVYLQIDSLKPEDTAVYYCYMLDKWGQGTQVTVSS
- binding result [4]: binds

B3: C5-NT(8-13) (VHH)
VHH: EVQLVESGGGVVQPGGSLKLSCVASGTDFSINFIRWYRQAPGKQREFVAGFTATGNTNYADSMKGRFTISRDNTKNAVYLQIDSLKPEDTAVYYCYMLDKWGQGTQVTVSS
- Kd [4]: 0.1 nM
- koff [4]: 0.00016 s⁻¹
- kon [4]: 1.36e+06 M⁻¹ s⁻¹

B5: VHH B6 (VHH)
VHH: EVQLVESGGGLVQPGGSLRLSCTASGGPIEQYPMGWFRRAPGKERELVASISRSGDGTYYAISSVKGRFTISRDNAENTVFLQMNSLKPDDTAVYYCGAGINPTKIWGQGTQVTVSS
- Kd [2]: 2.7 nM
- binding result [6]: no binding (tested: 50 µg/ml)
- binding result [7]: no binding (tested: 50 µg/ml)

B7: VHH B8 (VHH)
chain: EVQLVESGGGVVQPGGSLRLSCAASGEIFSINFMRWYRQAPGKQREWVAGFTRDGSTNYPDSAKGRFTISRDNAKNTVYLQIDSLKPEDTAVYYCYMLDTWGQGTQVTVSS
- Kd [1]: ~30 nM
- Kd [2]: 2.4 nM
- binding result [8]: binds

B10: B8V34-NT(8-13) (VHH)
VHH: EVQLVESGGGVVQPGGSLRLSCAASGEIRSINFMRWYRQAPGKQREWVAGFTRDGSTNYPDIAKGRFTISRDNAKNTVYLQIDSLKPEDTAVYYCYMLDTWGQGTQVTVSS
- Kd [4]: 16.9 nM

Other lines, results leading:

- binding result [5]: binds
B4: C5neg-NT(8-13) (VHH)
VHH: EVQLVESGGGVVQPGGSLKLSCVASGTDFSINFIRWYRQAPGKQREFVAGFTATGNTNYADSMKGRFTISRDNTKNAVYLQIDSLKPEDTAVYYCAMADKWGQGTQVTVSS

- binding result [8]: binds
- binding result [9]: binds
- binding result [10]: binds
B6: VHH H3 (VHH)
VHH: EVQLVESGGGEVQPGGSLKLSCVASGTDFSINFVRWYRQRPGKQREWVAGFTANGDTNYPDSMKGRFTISRDNAKNTVYLQINSLKSEDTAVYYCYMLDNWGQGTQVTVSS

- binding result [4]: binds
- binding result [11]: binds
B8: B8V31 (VHH)
chain: EVQLVESGGGVVQPGGSLRLSCAASGEIKSINFMRWYRQAPGKQREWVAGFTRDGSTNYPDSAKGRFTISRDNAKNTVYLQIDSLKPEDTAVYYCYMLDTWGQGTQVTVSS

- binding result [5]: binds
B9: B8-NT(8-13) (VHH)
VHH: EVQLVESGGGVVQPGGSLRLSCAASGEIFSINFMRWYRQAPGKQREWVAGFTRDGSTNYPDSAKGRFTISRDNAKNTVYLQIDSLKPEDTAVYYCYMLDTWGQGTQVTVSS

- binding result [4]: binds
- binding result [11]: binds
B11: B8V40 (VHH)
chain: EVQLVESGGGVVQPGGSLRLSCAASGEIKSINFMRWYRQAPGKQREWVSGFTRDGSTNYPDSAKGRFTISRDNAKNTVYLQIDSLKPEDTAVYYCYMLDTWGQGTQVTVSS

- binding result [4]: binds
B12: B8V37 (VHH)
VHH: EVQLVESGGGVVQPGGSLRLSCAASGEIFSINFMRWYRQAPGKQREWVAGFTRDGSTNYPDSAKGRFTISEDNAKNTVYLQIDSLKPEDTAVYYCYMLRTWGQGTQVTVSS
